The text below walks through data of US20210121406A1 (AstraZeneca / MedImmune, published 2021).

B1: Fab1 (Fab, V domains shown)
VH: QMQLVESGGGVVQPGRSLRLSCAASGFTFRTYGMHWVRQAPGKGLEWVAVIWYDGSNKHYADSVKGRFTITRDNSKNTLNLQMNSLRAEDTAVYYCARAPQWELVHEAFDIWGQGTMVTVSS
VL: SYVLTQPPSVSVAPGQTARITCGGNNLGSKSVHWYQQKPGQAPVLVVYDDSDRPSWIPERFSGSNSGNTATLTISRGEAGDEADYYCQVWDSSSDHVVFGGGTKLTVLG
notes: CDRs of anti-TSLP mAb A5 (WO 2009/035577) cloned into an IgG1 Fab scaffold; also called anti-TSLP Fab; MEDI8630
B10: cyno TSLP (ligand, cynomolgus (cyno))
chain: YDFTNCDFQKIEADYLRTISKDLITYMSGTKSTDFNNTVSCSNRPHCLTEIQSLTFNPTPRCASLAKEMFARKTKATLALWCPGYSETQINATQAMKKRRKRKVTTNKCLEQVSQLLGLWRRFIRTLLKKQ
notes: As used in solution in the KinExA assay; also called Cynomolgus TSLP

The target in the assay “cyno TSLP” is B10. Kind of assay: KinExA, solution phase, global 1:1 fit.
The target of assay [1] is T1, N-terminally tagged biotinylated cyno TSLP (cynomolgus (cyno), UniProt A0A7N9CAT7 29-159, biotinylated (site not stated)).
T1 construct: Captured on streptavidin in the Biacore assay; also called Cynomolgus TSLP; recombinant mammalian cell-expressed cyno TSLP; not shown: N-terminal tag
Kind of assay: SPR (Biacore 8K), biotinylated TSLP on streptavidin, Fab1 in flow, 1:1 Langmuir model.

Assay [2] addresses T2, biotinylated His-Avi hu TSLP (human, UniProt Q969D9 29-159, biotinylated (site not stated)).
T2 construct: also called biotinylated TSLP; not shown: His-Avi tag
Kind of assay: HTRF competition; competitor DyLight-labelled tezepelumab. (In general: Time-resolved FRET reads energy transfer from a long-lived donor to a nearby acceptor.)

The target in assay [3] is B1. The assay is described as follows: KinExA, cyno TSLP titrated into 40 pM fixed Fab1 (open squares); free Fab1 captured on hu TSLP-coated beads. Background: Kinetic exclusion samples the free partner from a solution-phase mixture.
Assay [4] concerns the target B1. Kind of assay: KinExA, cyno TSLP titrated into 1000 pM fixed Fab1 (filled diamonds); free Fab1 captured on hu TSLP-coated beads.

Consider B1, for which the Kd was determined as 0.0136 nM with cyno TSLP and 0.0884 nM in assay [1].

B2: Fab2 (Fab, V domains shown)
VH: QMQLVESGGGVVQPGRSLRLSCAASGFTFRTYGMHWVRQAPGKGLEWVAVIWYDGSNKHYADSVKGRFTITRDNSKNTLNLQMNSLRAEDTAVYYCARAPQWELVHEAFDIWGQGTMVTVSS
VL: SYVLTQPPSVSVAPGQTARITCGGNNIGSKSVHWYQQKPGQAPVLVVYDDSDRPSWIPERFSGSNSGNTATLTISRGEAGDEADYYCQVWDSSSDHVVFGGGTKLTVL
As to B2, in assay [2], the 50% inhibitory concentration (IC50) is 0.29 nM.

B3: Fab5 (Fab, V domains shown)
VH: QMQLVESGGGVVQPGRSLRLSCAASGFTFRTYGMHWVRQAPGKGLEWVAVIWYDGSNKHYADSVKARFTITRDNSKNTLNLQMNSLRAEDTAVYYCARAPQWELVHEAFDIWGQGTMVTVSS
VL: SYVLTQPPSVSVAPGQTARITCGGNNLGSKSVHWYQQKPGQAPVLVVYDDSDRPSWIPERFSGSNSGNTATLTISRGEAGDEADYYCQVWDSSSDHVVFGGGTKLTVL
notes: Only the changed VH is printed
The molecule B3 gave a half-maximal inhibitory concentration (IC50) in assay [2] of 0.42 nM. This IC50 and that of the molecule before are within 1.5-fold of each other.

B4: Fab3 (Fab, V domains shown)
VH: QMQLVESGGGVVQPGRSLRLSCAASGFTFRTYGMHWVRQAPGKGLEWVAVIWYDGSNKHYADSVKGRFTITRDNSKNTLNLQMNSLRAEDTAVYYCARAPQWELVHEAFDIWGQGTMVTVSS
VL: SYVLTQPPSVSVAPGQTARITCGGNNVGSKSVHWYQQKPGQAPVLVVYDDSDRPSWIPERFSGSNSGNTATLTISRGEAGDEADYYCQVWDSSSDHVVFGGGTKLTVL
notes: Only the changed VL is printed
For the molecule B4, the IC50 in assay [2] came out at 0.24 nM.

B5: Fab8 (Fab, V domains shown)
VH: QMQLVESGGGVVQPGRSLRLSCAASGFTFRTYGMHWVRQAPGKGLEWVAVIWYDGSNKHYADSVKGRFTITRDNSKNTLNLQMNSLRAEDTAVYYCARAPQWELVHEAFDIWGQGTMVTVSS
VL: SYVLTQPPSVSVAPGQTARITCGGNNLGSKSVHWYQQKPGQAPVLVVYDDSDRPSWIPERFSGSNSGNTATLTISRGEAGDEADYYCQVWDTSSDHVVFGGGTKLTVL
notes: as for B4
Take B5: the half-maximal inhibitory concentration (IC50) in assay [2] turned out to be 0.29 nM. The IC50 values of the last two molecules are within 1.5-fold of each other.

B6: Fab4 (Fab, V domains shown)
VH: QMQLVESGGGVVQPGRSLRLSCAASGFTFRTYGMHWVRQAPGKGLEWVAVIWYDGSNKHYAESVKGRFTITRDNSKNTLNLQMNSLRAEDTAVYYCARAPQWELVHEAFDIWGQGTMVTVSS
VL: SYVLTQPPSVSVAPGQTARITCGGNNLGSKSVHWYQQKPGQAPVLVVYDDSDRPSWIPERFSGSNSGNTATLTISRGEAGDEADYYCQVWDSSSDHVVFGGGTKLTVL
notes: as for B3
B6 yielded an IC50 in assay [2] of 0.36 nM.

B7: Fab6 (Fab, V domains shown)
VH: QMQLVESGGGVVQPGRSLRLSCAASGFTFRTYGMHWVRQAPGKGLEWVAVIWYDGSNKHYADSVKGRFTITRDNSKNTLNLQMNSLRAEDTAVYYCARAPQWELVHEAFDIWGQGTMVTVSS
VL: SYVLTQPPSVSVAPGQTARITCGGQNLGSKSVHWYQQKPGQAPVLVVYDDSDRPSWIPERFSGSNSGNTATLTISRGEAGDEADYYCQVWDSSSDHVVFGGGTKLTVL
notes: as for B4
As for B7, the IC50 in assay [2] was 0.32 nM.

B8: Fab7 (Fab, V domains shown)
VH: QMQLVESGGGVVQPGRSLRLSCAASGFTFRTYGMHWVRQAPGKGLEWVAVIWYDGSNKHYADSVKGRFTITRDNSKNTLNLQMNSLRAEDTAVYYCARAPQWELVHEAFDIWGQGTMVTVSS
VL: SYVLTQPPSVSVAPGQTARITCGGNQLGSKSVHWYQQKPGQAPVLVVYDDSDRPSWIPERFSGSNSGNTATLTISRGEAGDEADYYCQVWDSSSDHVVFGGGTKLTVL
notes: VL as labelled 'LIGHT CHAIN VL FAB7'
With B8, the concentration for half-maximal inhibition (IC50) in assay [2] was 0.24 nM.

B9: Fab9 (Fab, V domains shown)
VH: QMQLVESGGGVVQPGRSLRLSCAASGFTFRTYGMHWVRQAPGKGLEWVAVIWYDGSNKHYADSVKGRFTITRDNSKNTLNLQMNSLRAEDTAVYYCARAPQWELVHEAFDIWGQGTMVTVSS
VL: SYVLTQPPSVSVAPGQTARITCGGNNLGSKSVHWYQQKPGQAPVLVVYDDSDRPSWIPERFSGSNSGNTATLTISRGEAGDEADYYCQVWDSTSDHVVFGGGTKLTVL
notes: as for B4
For the molecule B9, the half-inhibitory concentration (IC50) in assay [2] is 0.29 nM. On to B10, for which the results for the “IC50 (read off the curve)” value in the assay with Fab1 [3] and in the assay with Fab1 [4] were around 0.04 nM and around 0.6 nM, respectively.

Usually Kd stands for a measure of binding affinity in units of concentration. Higher therefore signals weaker binding. A word on the IC50: it is the midpoint of a concentration-inhibition curve. Low readings indicate higher potency, high ones lower potency.
